Data from patent US20250152663A1, “COMPOSITION FOR PREVENTION OR TREATMENT OF DRY EYE DISEASE COMPRISING HAPLN1” (HAPLNSCIENCE INC., priority 2021, published 2025).

Legend:
[1] = test system: IL-1β in lacrimal glands; assay: IL-1β immunohistochemistry in lacrimal gland, mouse dry eye model; format: in vivo, C57BL/6; details: 5 μg/ml or more of HAPLN1, after 16 days of drug treatment
Experimental: In this example, expression of IL-1B in lacrimal glands was identified by immunohistochemistry in order to identify an in vivo anti-inflammatory effect of the HAPLN1 protein-containing composition of the present disclosure. To this end, on the 2nd day after 16 days of drug treatment, eyes were enucleated and paraffin blocked. IHC was performed by using a prepared slide, and expression (brown) of IL-1β was identified by using an Anti-IL1β antibody (FIG. 11A). FIG. 11B is a graph illustrating quantified expression levels of IL-1β obtained in FIG. 11A.

[2] = test system: MUC5AC in human conjunctiva epithelial cells (HConEpiC); assay: Anti-MUC5AC fluorescence staining under high osmotic pressure; format: cell-based
Experimental: First, human conjunctiva epithelial cells (HConEpiC) obtained after 4th passage of culture were seeded onto 24 wells and incubated for 24 hours, and then treated with high osmotic pressure of 450 mOsM simultaneously with the composition of the present disclosure having various concentrations (0, 5, 10, 20, 50, 100, and 200 ng/ml) of the HAPLN1 protein or Cyclosporine A (0.1 μM). After 72 hours of incubation, the cells were immobilized with 4% paraformaldehyde for 30 minutes and washed with a buffer. Subsequently, fluorescence staining was performed by using Anti-MUC5AC (DAPI labels the nuclei).

[3] = test system: NFκB in human corneal epithelial cells; assay: Western blot of NFκB activity under high osmotic pressure; format: cell-based; details: HCEC, 450 mOsM
Experimental: In addition, the activity of NFκB that is an important transcription factor in expression of the inflammatory factors was identified by Western blot analysis (FIG. 4B). Preparation of the experiment was performed under the same conditions of those of Cytokine array performed as described above and the ELISA was performed according to the manufacturer's instructions.

B1: hyaluronan and proteoglycan link protein 1 (HAPLN1) (protein, listed as Homo sapiens)
chain: MKSLLLLVLISICWADHLSDNYTLDHDRAIHIQAENGPHLLVEAEQAKVFSHRGGNVTLPCKFYRDPTAFGSGIHKIRIKWTKLTSDYLKEVDVFVSMGYHKKTYGGYQGRVFLKGGSDSDASLVITDLTLEDYGRYKCEVIEGLEDDTVVVALDLQGVVFPYFPRLGRYNLNFHEAQQACLDQDAVIASFDQLYDAWRGGLDWCNAGWLSDGSVQYPITKPREPCGGQNTVPGVRNYGFWDKDKSRYDVFCFTSNFNGRFYYLIHPTKLTYDEAVQACLNDGAQIAKVGQIFAAWKILGYDRCDAGWLADGSVRYPISRPRRRCSPTEAAVRFVGFPDKKHKLYGVYCFRAYN
expression of IL-1β in lacrimal gland [1]: decreased to a level similar to that of Sham control | numbers of cells secreting MUC5AC, compared with control ([2]; 450 mOsM, 10, 20, 50, 100, and 200 ng/ml, 72 hours): significantly greater than that of the normal control | numbers of cells secreting MUC5AC, compared with Cyclosporine A ([2]; 450 mOsM, at some concentrations, vs Cyclosporine A 0.1 μM): greater than the case treated with Cyclosporine A | phosphorylation of NFκB [3]: reduced
